Test results published in publication PMC11612440 (2024).
Read-outs that look alike come from different tables or passages of the source.

T1: BCL11B protein, MBP-tag-fused recombinant (pETMBP.3C-Bcl11b) (mouse, UniProt Q99PV8 1-884)
T1 chain: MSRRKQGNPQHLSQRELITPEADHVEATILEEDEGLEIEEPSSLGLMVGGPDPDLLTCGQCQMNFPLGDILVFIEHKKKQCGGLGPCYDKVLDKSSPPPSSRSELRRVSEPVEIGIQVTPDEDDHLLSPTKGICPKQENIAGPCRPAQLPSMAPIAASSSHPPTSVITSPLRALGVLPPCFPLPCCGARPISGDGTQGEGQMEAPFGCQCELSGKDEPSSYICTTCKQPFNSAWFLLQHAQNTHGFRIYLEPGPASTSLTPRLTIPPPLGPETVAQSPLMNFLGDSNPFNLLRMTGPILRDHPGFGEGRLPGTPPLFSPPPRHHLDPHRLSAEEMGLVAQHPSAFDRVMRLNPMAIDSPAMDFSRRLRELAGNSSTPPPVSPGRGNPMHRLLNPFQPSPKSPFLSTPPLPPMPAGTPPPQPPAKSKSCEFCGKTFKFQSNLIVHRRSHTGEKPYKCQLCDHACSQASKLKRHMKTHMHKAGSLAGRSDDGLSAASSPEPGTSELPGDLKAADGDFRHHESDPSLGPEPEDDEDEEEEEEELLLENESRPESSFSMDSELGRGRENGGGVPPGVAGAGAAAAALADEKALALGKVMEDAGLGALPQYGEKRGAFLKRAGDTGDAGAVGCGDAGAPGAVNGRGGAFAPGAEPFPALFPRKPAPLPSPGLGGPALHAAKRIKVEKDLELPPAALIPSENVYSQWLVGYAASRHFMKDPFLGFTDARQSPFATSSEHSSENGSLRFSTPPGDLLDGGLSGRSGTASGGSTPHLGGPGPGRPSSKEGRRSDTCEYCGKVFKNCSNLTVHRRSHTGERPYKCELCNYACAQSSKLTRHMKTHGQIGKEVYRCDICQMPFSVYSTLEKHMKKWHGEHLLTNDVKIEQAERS


Columns and labels:
[1] = molecular target: T1, BCL11B protein, MBP-tag-fused …; assay: SPR
[2] = molecular target: T1, BCL11B protein, MBP-tag-fused …; assay: SPR

Row | Kd [1] | Kd [2] | Binder
1 | 2.42 nM |  | MBD3, MBP-tag-fused recombinant (pETMBP.3C-Mbd3) (natural protein) MERKRWECPALPQGWEREEVPRRSGLSAGHRDVFYYSPSGKKFRSKPQLARYLGGSMDLSTFDFRTGKMLMNKMNKSRQRVRYDSSNQVKGKPDLNTALPVRQTASIFKQPVTKITNHPSNKVKSDPQKAVDQPRQLFWEKKLSGLSAFDIAEELVRTMDLPKGLQGVGPGCTDETLLSAIASALHTSTLPITGQLSAAVEKNPGVWLNTAQPLCKAFMVTDDDIRKQEELVQQVRKRLEEALMADMLAHVEELARDGEAPLDKACAEEEEEEEEEEEEPEPERV
2 |  | 0.609 nM | β-catenin, MBP-tag-fused recombinant (pETMBP.3C-β-catenin) (natural protein) MATQADLMELDMAMEPDRKAAVSHWQQQSYLDSGIHSGATTTAPSLSGKGNPEEEDVDTSQVLYEWEQGFSQSFTQEQVADIDGQYAMTRAQRVRAAMFPETLDEGMQIPSTQFDAAHPTNVQRLAEPSQMLKHAVVNLINYQDDAELATRAIPELTKLLNDEDQVVVNKAAVMVHQLSKKEASRHAIMRSPQMVSAIVRTMQNTNDVETARCTAGTLHNLSHHREGLLAIFKSGGIPALVKMLGSPVDSVLFYAITTLHNLLLHQEGAKMAVRLAGGLQKMVALLNKTNVKFLAITTDCLQILAYGNQESKLIILASGGPQALVNIMRTYTYEKLLWTTSRVLKVLSVCSSNKPAIVEAGGMQALGLHLTDPSQRLVQNCLWTLRNLSDAATKQEGMEGLLGTLVQLLGSDDINVVTCAAGILSNLTCNNYKNKMMVCQVGGIEALVRTVLRAGDREDITEPAICALRHLTSRHQEAEMAQNAVRLHYGLPVVVKLLHPPSHWPLIKATVGLIRNLALCPANHAPLREQGAIPRLVQLLVRAHQDTQRRTSMGGTQQQFVEGVRMEEIVEGCTGALHILARDVHNRIVIRGLNTIPLFVQLLYSPIENIQRVAAGVLCELAQDKEAAEAIEAEGATAPLTELLHSRNEGVATYAAAVLFRMSEDKPQDYKKRLSVELTSSLFRTEPMAWNETADLGLDIGAQGEALGYRQDDPSYRSFHSGGYGQDALGMDPMMEHEMGGHHPGADYPVDGLPDLGHAQDLMDGLPPGDSNQLAWFDTDL
